Measurements reported in the nanobody polyreactivity screen of Harvey et al. (2022).

Test: yeast display, Sf9 membrane polyspecificity reagent, FACS + sequencing; frameworks hold sequencing errors
How it was run: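 After 36–48 hours of galactose induction, yeast (Saccharomyces cerevisiae BJ5465) displaying a synthetic nanobody library were stained at 4 °C for 1 hour with 10% biotinylated, detergent-solubilized Sf9 membrane reagent. Streptavidin microbeads enriched the stained cells before FACS sorting into low and high (top ~1%) gates on anti-HA and streptavidin fluorescence. Each clone's polyreactivity label reflects its gate of origin.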

QVQLVESGGGLLQAGGSLRLSCAASGIIFFYYSMGWYRQAPGKERELVAAISSDGSTYYADSVKGRFTSSRDNAKNTVYLQMNSLKPEDTAVDYCAAQYNHWWEYDYWGQGTQVTVSS
polyreactivity (PSR sort gate): low polyreactivity

QVQLVESGGGLVQAGGSLRLSCAASGRIFIYYTMGWYRQAPGKERELVAAINSGGSTKYADSVKGRFTISRDNAKNTVYLQMNSLKPEDTAVYYCARRGGFSYYYWGQGTQVTVSS
polyreactivity (PSR sort gate): high polyreactivity

QVQLVESGGGLVQAGGSLRLICAASGRTLGGNAMGWYRQAPGKERELVAAITNSASTYADSVKGRFTISRDNAKNTVYLQMNSLKPEDTAVYYCNAPDPSDQHGDYWGQGTQVTVSS
polyreactivity (PSR sort gate): low polyreactivity

QVQLVESGGGLVQAGGSLRLSCAASGSISVVNMGWYRQAPGKERELVASITSSGSTTYADSVKGRFTISRDNAKNTVYLQMNSLKPEDTAVYYCAAVRCRSQPYWYHSMDHWGQGTQVTVSS
polyreactivity (PSR sort gate): low polyreactivity

KVNIEESGGGLVQAGGSLRLSCAAYGSIFRYYAMGRYRQATGKERELVASISSSGGSTYYADSEKGRFTISRDNAKNTVYLQMNSLKPEDTAVYYCAAVRHRNYGYWGQGTQVTVSS
polyreactivity (PSR sort gate): high polyreactivity

QVQLVESGGGLVQAGGSLRLSCAASGRTLNDYTMGWYRQAPGKERELVAAISSSGVRTYYADSVKGRFTISRDNAKNTVYLQMNSLKPEDTAVYYAKRAGYDRRWNYDYWGQGTQVTVSS
polyreactivity (PSR sort gate): high polyreactivity

QVQLVESGGGLVQAGGSLRLSCAASGSTFPTYAMGWYRQAPGKERELVADITWSGGSTYYADSVKGRFTISRDNAKNTVYLQMNSLKPEDTAVYYCAAVFKAGSAYDYWGQGTQVTVSS
polyreactivity (PSR sort gate): high polyreactivity

QVQLVESGGGLVQAGGSLRLSCAASGITFYGYTMGWYRQAPGKERELVAAITYFGSTYYADSVKGRFTISRDNAKNTVYLQMNSLKPEDTAVYYCAAQRFRSGWFGYWGQGTQVTVSS
polyreactivity (PSR sort gate): high polyreactivity

QVQLVESGGGLVQAGGSLRLSCAASGSIFRYYAMVWYRQAPGKERELVAAISSGGNTKYADSVKGRFTISRDNAKNTVYLQRNSLKPADTAVYYCNADGKAGGDYDYWGQGTQVTVSS
polyreactivity (PSR sort gate): low polyreactivity

QVQLVESGGGLVQAGGSLRLSCAASGSTFREYAMGWSRQAPGKERELVAAISSGDSTNYADSVKGRFTISRDNAKNTVYLQMNSLKPEDTAVYYCAADAPGAAAVQNDYWGQGTQVTVSS
polyreactivity (PSR sort gate): low polyreactivity

QVQLVESGGGLVQAGGSLRLSCAASGLTFWDNAMGWYRQAPGKERELVAAIRGGGSTYYADSVKGRFTISRDNAKNTVYLQMNSLKPEDTAVYYCNAESYQDTLFGADNDYDYWGQGTQVTVSS
polyreactivity (PSR sort gate): low polyreactivity

QVQLVESGGGLVQAGGSLRLSCAASGSTFYWYAMGWYRQAPGKERELVDDITFSSGGTYYADSVKGRFTISRDNAKNTVYLQMNSLKPEVTADYYCATEYSLWYTRDWQRYEYWGQGTQVTVSS
polyreactivity (PSR sort gate): high polyreactivity

QVQLEESGGGLVQAGGSLRLSCAASGRIRYYAMGWYRQAPGKERELVAAISSTGGSTYYADSVKGRFTISRDNAKNTVYFQMNSLKPEDTAVYYCNVAWIWGKYEYWGQGTQVTVSS
polyreactivity (PSR sort gate): high polyreactivity

QVQLVESAGGLVQAGASLRLSCAASGLIYRKYSMGWYRQAPGKERELVAAISSGGDTNYADSVKGLFTISRDNAKNTVYLQMNSLKPEDTAVYYCNADRKYWYGIALEYWGQGTQVTVSS
polyreactivity (PSR sort gate): high polyreactivity

QVQLVESGGGLVQAGGSLRLSCAASGSTFVSNAMGWDRQAPGQEREVVAALSSGGSPYYADSVKGRFTISRDNAKNTVYLQMNRLKPEDTAVYYCNKRRGRKWPGNYSVVKLLMGYWGQGTQVTVSS
polyreactivity (PSR sort gate): low polyreactivity

QVQLVESGGGLVQAGGSLRLSCAASGFTFFRYAMGWYRQAPGKERELVATITRGGSTNYADSVKGRCTISRDNAKNTDYLQMNSLQPEDTAVYYCNKDKKTPTFDYWGQGTQVTVSS
polyreactivity (PSR sort gate): low polyreactivity

QVQLVESGGGLVQAGGSLRLSCAASGRIFYVYAMGWYRAPGKERELVASISYIGGSTYYADSVKGRFTISRDNAKNTVYLQMNSLKPEDTAVYYCATDYYGYTVSYLVPSWPDDYWGQGTQVTVSS
polyreactivity (PSR sort gate): low polyreactivity

QVQLVESGGGLVQAGGSLRLSCAASGSIFSSNTMGWYRQAPGKERELVAAITVSGGRTYYADSVKGRFTISRDNAKNTVYLQMNSLKPEDTAVYYCATRWFGNSYSYRAYDYWGQGTQVTVSS
polyreactivity (PSR sort gate): high polyreactivity

QVQLVESGGGLDQARGSLRLSCAASGRTSLRYAMGWYRQAPWKERELVAAITSSGATTYYADSVKGRFTISRDNAKNTVYLQMNSLKPEDTAVYYCAAVYSAKRGSGGFGYWGQGTQVTVSS
polyreactivity (PSR sort gate): high polyreactivity

QVQLVESGGGLVQAGGSLRLSCAASGSTFTTNAMGWYSQAPGKERELVATISGGGSTYYADSVKGRFTISRDNAKNTVYLQMNSLKPEDTAVYYCATDVQVPGIGRSVYAYEYWGQGTQVTVSS
polyreactivity (PSR sort gate): low polyreactivity

QVQLVESGGGLVQAGGSLRLSCAASGSIFPYNVMGWYRPAPGQERELVAANTTGGRTNYADSVKGRFTISRDNAKNTVYLQMNSLKPEDTAVYYCAARYGYYDSRRWYYYSGQGTQVTVSS
polyreactivity (PSR sort gate): high polyreactivity

QVQLVESGGGLVQAGGSLRLRCAASGRIIFRNAMVWYRQAHGKERELVAAITRGGGSTYYADSVKGRFTISRDNAKNTVYLQMNSLKPEDTAVYYCAAGACYSLYSAYDYWGQGTQVTVSS
polyreactivity (PSR sort gate): low polyreactivity

QVQLQECGGGLVQAGGSLRLSCAASGTFSNSVKWLYCQAPGKEREFVATIGVGGSTNYADSVIGRFTISRDNAKNTVYLQMNSRKQEDTAVYHCAAYGAASNFHYYRGQGTQVTVSS
polyreactivity (PSR sort gate): low polyreactivity

QVQLVESGGGLVQAGGSLRLSCAASGRIFWYYAMGWYRQAAGKERELVAAISSGTTKYADSVKGRFTISRDNAKNTVYLQMNSLKPEDTAVYYCNAAAYYPTNYGGYLFEYWGQGTQVTVSS
polyreactivity (PSR sort gate): low polyreactivity

QVQLVESGGGLVQAGGSLRLSCAASGSNFTNYAMGWYRPAPGKERELVARITSSGSRTYYADSVKGRFTISRDNAKNTVYLQMNSLKPEDTAVYYCNAETYYLRYGRGYRRFDYWGQGTQVTVSS
polyreactivity (PSR sort gate): high polyreactivity

KVQLVESGGGLVQAGGSLRLSCAASGSTFAGNALGWYRKAPGKERELVAAIDSSTGSTYYADSVKGRFTISRDNAKNTVYLQMNSLKPEDTAVYYCNKTSLLVKLDYWGPGTQVTVSS
polyreactivity (PSR sort gate): low polyreactivity

QVQLVESGGGLFQAGGSLRLSCAASGFTFRANAMGWYRQAPGKERELVAVITGSGRTYYADSVKGRFTISRDNAKNTVYLQMNSLKPEDTAVYYCAARAAYRVSSPGYDSWGQGTQVTVSS
polyreactivity (PSR sort gate): high polyreactivity

QVQLVESGGCLVQAGGSLRLSCYASGSIFVDKAMGWFRQPPGKERELVAAITDSGGRTYYADSVKGRFTISRDNAKNTVYLQKNSLKPEDTAVYYCAAGQSGYAGRRPAFGSWGQGTQVTVSS
polyreactivity (PSR sort gate): low polyreactivity

QVQLVESCGGLVQAGGSLRLSCAASGFTFYYYVMGWYRQAPGQERELVAAISRSGGNTYYADSVKGRFTISRDNAKNTVYLQMNRLKPEDTAVYYCNAVQYYPVYYWGQGTQVTVSS
polyreactivity (PSR sort gate): high polyreactivity

QVQLVESGGGLVQAGGSLRLSCAASGGIFIFYAMGWYRQAPGKERELVAAISNVSSTNYADSVKGRFTISRDNAQNTVYLQMNSLKPEDTAVYYCNAVCVPSEYYSWGQGSQVTVSS
polyreactivity (PSR sort gate): low polyreactivity

QVQLVESGGGLVQAGGSLRLSCAASGSTFVFYTMGWYRQAPGKEREFVASISGSGGSTYYADSVKGRFTISRDNAKNTVYLQMNSLKPEDTAVYYCGAGYPYYYWTPYYYWGQGTQVTVSS
polyreactivity (PSR sort gate): high polyreactivity

QVQLVESGGGLVQAGGRLRLSCAASGRIFLGNVMGWYRQAPGKERELVAAISSGGSTNYADSVKGRFTISRDNAKNTVYLQMNSLKPEDTAVYYCAAYFVRDWKLYYYWGQGTQVTVSS
polyreactivity (PSR sort gate): low polyreactivity
